Experimental data from article PMC2826812 (Biochemistry, 2010).
Each block holds one compound with its values, some of them ahead of it.

Columns and labels:
[1] = molecular target: acto-Myo1c^1IQ (pyr.actin-Myo1c^1IQ) (Rattus norvegicus, UniProt Q63355); type: binding
[2] = molecular target: rabbit skeletal muscle F-actin (rabbit) (UniProt P68135)
[3] = molecular target: rabbit skeletal muscle F-actin (rabbit) (UniProt P68135); remark: listed apart in the source

- Kd [1]: 1740 nM
Compound: Nc1ncnc2c1ncn2[C@@H]1O[C@H](COP(=O)(O)OP(=O)(O)O)[C@@H](O)[C@H]1O [ADP]

- Km for actin of the steady-state actin-activated Mg2+-ATPase, pCa 4.6 [2]: 0.28 μM
Compound: Myo1c^1IQ-G (from UniProt Q63355 1-725) (domain or fragment)

- in vitro motility: speed of actin filaments over surface-held myosin [3]: 29 nm/s
Compound: Myo1c^SAH-G (from UniProt Q63355 1-762; D3ZJP6 805-843) (domain or fragment)
